From patent US20130059772A1, “Use of Repeat Sequence Protein Polymers in Personal Care Compositions” (DANISCO US INC., priority 2003, published 2013)
Several values for one entry are separate records, joined by “and”; a condition that tells them apart may be missing. Equal values may be shown once.

What was measured:
facial skin [1] = test: Skin efficacy study: superficial facial line score (Packman and Gans); type: in vivo, human
Source text: Eleven impaneled subjects (age 35-70 years) showing clear signs of facial skin aging were provided with a non-moisturizing soap, (AVEENO®), one week prior to the study and were instructed to use the provided soap to wash the face and were required to refrain from excessive UV exposure. After a seven-day conditioning phase, subjects were acclimated to the ambient temperature and humidity for thirty minutes. One side of the face of each subject was designated as the measurement side by random selection by computer. After 30-minute acclimation period, baseline digital photographs were taken, and instrumental measurements, skin replica samples and visual evaluations were made. Photographs were taken, with a Canfield Scientific Camera, of the full face, the periorbital area, and the temporal side of eye. Chromameter (Model CR300, Minolta) measurements were taken from the periorbital area directly under the eye (Chardon et al., Int. J. Cosmet. Sci., 13:191-208 [1991]). […]
Evaluation of superficial facial lines was performed by an expert evaluator using the scoring method described by Packman and Gans (supra). A 7% decrease in the superficial facial line score was assessed at the 30-minute post-treatment interval compared to baseline, which was statistically significant at the 91% confidence level (p=0.09).

facial skin [2] = test: Skin efficacy study: image analysis of Silflo replicas (fine line factors); type: in vivo, human
Source text: Eleven impaneled subjects (age 35-70 years) showing clear signs of facial skin aging were provided with a non-moisturizing soap, ([…]®), one week prior to the study and were instructed to use the provided soap to wash the face and were required to refrain from excessive UV exposure. After a seven-day conditioning phase, subjects were acclimated to the ambient temperature and humidity for thirty minutes. One side of the face of each subject was designated as the measurement side by random selection by computer. After 30-minute acclimation period, baseline digital photographs were taken, and instrumental measurements, skin replica samples and visual evaluations were made. Photographs were taken, with a Canfield Scientific Camera, of the full face, the periorbital area, and the temporal side of eye. Chromameter (Model CR300, Minolta) measurements were taken from the periorbital area directly under the eye (Chardon et al., Int. J. Cosmet. Sci., 13:191-208 [1991]). Silflo replicas (CuDerm Corporation, Dallas, Tx) were made from the periorbital area adjacent to the temporal side of the eye (Grove et al., J. Am. Acad. Dermatol., 21:631-637 [1998]; and Sun et al […] Conference, Mexico). […] Specifically, the fine line factors, which approximate the number and/or length of facial lines in the 10 evaluated bands of skin replica, were measured. […]

[3] = Cloud point determination (turbidity at 300 nm, 20-80° C.); type: physicochemical; conditions: 0.05% solution in water
[4] = Tensile mechanical properties of films (INSTRON Model 5564); type: physicochemical
Protocol: In this Example, experiments performed to determine tensile mechanical properties of SELP47K (Example 1 and 2) are described. Samples of SELP47K were prepared by freeze-drying purified SELP47K solution. The subsequent powder was re-dissolved in water to a solids concentration of approximately 5, 10 or 20%. These solutions were then mixed with plasticizers to an effective concentration of 1-3%. Plasticizers included in this study were polyethylene glycol 200, glycerin, and triethanolamine. Eleven milliliters of these solutions were poured into a large (6 inch square) polyethylene weigh boats and the solutions were allowed to dry either in an oven at 37° C. or room temperature for 1 to 3 days. Subsequent films were successfully peeled from the weigh boat with a spatula without any damage to the polymer film.
The films were then cut into tensile specimens using a very sharp fabric cutting wheel. The specimens were approximately 6 cm long and 2.5 cm wide. The gauge length for these samples (length of sample between tensile testing clamps) was set to 3 cm and the thickness of the sample was measured at 5 points along the gauge length using a digital thickness coating instrument. The thickness of the samples was recorded as the average of the 5 points and varied from 46.4 to 188.2 microns. Both the sample width and sample thickness were entered into an Instron software program (Merlin) to enable it to calculate the tensile strength and tensile modulus.
The samples were loaded into the jaws of an INSTRON® Model 5564 apparatus making sure the gauge length was always set to 3 cm and that the sample was not under any static load or stress. […] The results of the stress-strain measurements can be seen for four of the samples in FIG. 1. The elongation % of SELP47K was determined to be 8.4 for 20% SELP47K solution film made at room temperature (RM). The tensile strength was determined to be 65.9 megapascals (MPa), and the tensile modulus was determined to be 1716.50 MPa. The results of plastisizer-SELP47K films reveal strong correlation between concentration and mechanical properties measured. For 3% PEG200 containing SELP47K, the films elongation % reached 541.

[5] = Example 1 Material [GC2596-26-A], film from 05% sol., 37 C.
[6] = Example 1 Material [GC2596-26-A], film from 05% sol., RM
[7] = Example 1 Material [GC2596-26-A], film from 10% sol., 37 C.
[8] = Example 1 Material [GC2596-26-A], film from 10% sol., RM
[9] = Example 1 Material [GC2596-26-A], film from 20% sol., 37 C.
[10] = Example 1 Material [GC2596-26-A], film from 20% sol., RM
[11] = Example 2 Material [GC2596-26-B], film from 10% sol., 37 C.

## SELP47K: silk-elastin repeat sequence protein copolymer, head-[(GAGAGS)2(GVGVP)3GKGVP(GVGP)4(GAGAGS)2]13-tail (SEQ ID NO:19), 886 amino acids
Facial skin [1]; 5% aqueous solution applied once to face, 30 Minutes Post, baseline mean 40
  Superficial Facial Line Score, Mean: 37
Facial skin [1]; 5% aqueous solution, 30-minute post-treatment vs baseline, p=0.09
  decrease in the superficial facial line score: 7%
Facial skin [2]; 5% aqueous solution applied once to face, 30 Minutes Post, baseline mean 284
  Fine Line Factors, Mean: 246
Facial skin [2]; 5% aqueous solution, 30 minutes after application vs baseline, p=0.05
  decrease in fine line factors: 13%
[3]
  cloud point: remains soluble in water even at 80 °C
[4]; [5]
  Tensile Strain: 2.6%
  Tensile Strength: 19.83 MPA
[4]; [6]
  Tensile Strain: 2.4%
  Tensile Strength: 21.43 MPA
[4]; [7]
  Tensile Strain: 3.6%
  Tensile Strength: 62.06 MPA
[4]; [8]
  Tensile Strain: 3.5%
  Tensile Strength: 62.98 MPA
[4]; [9]
  Tensile Strain: 8.6%
  Tensile Strength: 74.14 MPA
[4]; [10]
  Tensile Strain (elongation %): 8.4%
  Tensile Strength: 65.9 MPA and 65.90 MPA
[4]; [11]
  Tensile Strain: 6.98%
  Tensile Strength: 39.34 MPA
[4]; film from 20% SELP47K solution made at room temperature (RM)
  tensile modulus: 1716.50 MPa
